This passage reports H2 relaxin-induced cAMP response (pCRE β-galactosidase reporter, HEK293T), pEC50 results from article PMC4837482, “The complex binding mode of the peptide hormone H2 relaxin to its receptor RXFP1” (Nature Communications, 2016).

Test [1] addresses RXFP1 A55L, full length (human).
The target in test [2] is T1, RXFP1 A68^Δ, full length (human) (UniProt Q9HBX9).
T1 sequence: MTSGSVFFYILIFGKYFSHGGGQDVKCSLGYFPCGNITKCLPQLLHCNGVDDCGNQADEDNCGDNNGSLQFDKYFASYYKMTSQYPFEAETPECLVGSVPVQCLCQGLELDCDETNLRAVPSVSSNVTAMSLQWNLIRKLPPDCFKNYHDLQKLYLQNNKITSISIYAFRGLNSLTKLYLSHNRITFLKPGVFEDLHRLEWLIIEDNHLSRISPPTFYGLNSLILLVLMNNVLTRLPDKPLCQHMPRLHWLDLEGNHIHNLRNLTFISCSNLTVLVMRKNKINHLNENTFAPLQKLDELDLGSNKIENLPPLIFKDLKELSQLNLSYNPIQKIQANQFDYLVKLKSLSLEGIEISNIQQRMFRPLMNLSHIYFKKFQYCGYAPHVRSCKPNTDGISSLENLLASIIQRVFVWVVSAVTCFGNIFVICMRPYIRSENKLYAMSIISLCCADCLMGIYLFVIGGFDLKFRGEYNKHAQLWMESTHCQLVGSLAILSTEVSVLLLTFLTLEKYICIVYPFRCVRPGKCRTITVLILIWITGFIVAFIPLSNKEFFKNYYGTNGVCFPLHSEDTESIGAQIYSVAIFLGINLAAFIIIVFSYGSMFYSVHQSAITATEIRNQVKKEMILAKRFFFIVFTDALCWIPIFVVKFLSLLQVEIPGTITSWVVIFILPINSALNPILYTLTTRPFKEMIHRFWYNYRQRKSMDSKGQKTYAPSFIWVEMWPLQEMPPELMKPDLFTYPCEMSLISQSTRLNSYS

Test [3] concerns the target RXFP1 F66A, full length (human).
For test [4], the target named is relaxin family peptide receptor-1 (RXFP1), wild type, full length (human) (UniProt Q9HBX9).

B1: H2 relaxin (ligand, human)
chain 1: QLYSALANKCCHVGCTKRSLARFC
chain 2: DSWMEEVIKLCGRELVRAQIAICGMSTWS
With B1, the H2 relaxin-induced cAMP response (pCRE β-galactosidase reporter, HEK293T), pEC50 in test [1] was determined as 10.8 pEC50; in test [2], 11.2 pEC50; in test [3] it was 11.2 pEC50; in test [4], 11 pEC50.
